The series is described as follows: protein stability index of a GFP-peptide fusion (GPS, HEK-293T) (PSI 1-6); higher = more stable.
The mark [1] stands for this setting: treatment: DMSO, c terminus: a fixed tail appended.
Where [2] appears, read: treatment: MLN4924 1 uM, 8 h, c terminus: a fixed tail appended.
Where [3] appears, read: treatment: DMSO, c terminus: native.
Where [4] appears, read: treatment: MLN4924 1 uM, 8 h, c terminus: native.

± gives the standard deviation.
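Also: 24-mer peptide tiles fused after GFP, lentivirally expressed, FACS-sorted into six equal bins by GFP/DsRed ratio, decoded by Illumina sequencing, PSI is the read-weighted mean bin number.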

On to LCLNTEDSFVCQCSEGFLINEDLK [MATN2], for which the protein stability index reads like this: under setting [1], 3.03 ± 0.28; under setting [2], 3.38 ± 0.28.

For EQCIKLWLHALHLRQKGNRNTHKD [FEM1B], the protein stability index reads like this: under setting [1], 2.39 ± 0.21; under setting [2], 2.59 ± 0.39.

For the sequence HSSDEDEDEDDEEDFEDDDEWED [WASL], the protein stability index is, setting by setting: under setting [3], 3.19 ± 0.17; under setting [4], 3.33 ± 0.47.

On to GDDFELLDQSELSQLDPASSRSH [RETREG3], for which the protein stability index came to 4.75 ± 0.29 under setting [3] and 4.85 ± 0.4 under setting [4].

WDMNSAPRLVSETAERKQEQKTGT [MFSD9] displayed a protein stability index under setting [1] of 5.44 ± 0.2 and a protein stability index under setting [2] of 5.38 ± 0.13.

For the sequence RPPFETTNLKETYRCIREARYTMP [PLK2], the protein stability index runs as follows: under setting [1], 2.72 ± 0.47; under setting [2], 2.31 ± 0.26.

RAYFMSDTREEKRFLGEGHHRVQE [CHGB]: the protein stability index was determined as 3.87 ± 0.28 under setting [1] and 3.89 ± 0.06 under setting [2].

As to LRATVERMGLMKANHVFFLLYLLH [FADS1], the protein stability index is, setting by setting: under setting [1], 2.35 ± 0.37; under setting [2], 2 ± 0.18.

On to LISQCGKPVVNVSYRPAYDQGGPV [DUSP5], for which the protein stability index is, setting by setting: under setting [1], 2.61 ± 0.38; under setting [2], 2.6 ± 0.42.

For the sequence ADFSSMLSEEEKEELKAELVQLED [TPD52L1], the protein stability index reads like this: under setting [1], 5.47 ± 0.32; under setting [2], 5.3 ± 0.37.

On to PNEAMVVSGFCRSPPVMVAGGRVF [FLOT1], for which the protein stability index reads like this: under setting [1], 2.2 ± 0.2; under setting [2], 2.42 ± 0.26.

With KQDLVPGSPDDSHPKDGPSPGGTL [DLC1], the protein stability index was 5.53 ± 0.25 under setting [1] and 5.37 ± 0.43 under setting [2].

GQLEFRALLFIPRRAPFDLFENKK [HSP90AB1] displayed a protein stability index under setting [1] of 2.22 ± 0.22.

With MISAAQLLDELMGRDRNLAPDEKR [LUC7L3], the protein stability index amounted to 3.87 ± 0.19 under setting [1] and 4.11 ± 0.21 under setting [2].

For the sequence QSSCSGPTHTPRPADFSLGSLPGP [VENTX], the protein stability index runs as follows: under setting [1], 3.83 ± 0.13; under setting [2], 3.89 ± 0.36.

Regarding EVTADDRKVKSTITLDGGVLVHVQ [FABP4], the protein stability index by setting is: under setting [1], 3.7 ± 0.37; under setting [2], 3.99 ± 0.17.

Turning to SPESSRGQCGENLAWASYDQTGKE [GLIPR2], the protein stability index is 4.8 ± 0.21 under setting [1] and 4.73 ± 0.27 under setting [2].

Take LDVVDNQTEKLDTNITEVDAASVY [CASP6]: the protein stability index runs as follows: under setting [1], 5.06 ± 0.15; under setting [2], 5.25 ± 0.15.

In the case of TPKAAWIREEGRCSSSDDDTDVDM [PBXIP1], the protein stability index under setting [1] was determined as 5.4 ± 0.32 and the protein stability index under setting [2] is 5.19 ± 0.38.

On to LAVLGADERIFSLTRRLAHGEELR [HAGHL], for which the protein stability index is, setting by setting: under setting [1], 2.82 ± 0.23; under setting [2], 2.81 ± 0.38.

For the sequence HEVKDNYIPVIKRALNSVPVIIAA [RHOBTB3], the protein stability index runs as follows: under setting [1], 2.34 ± 0.34; under setting [2], 2.18 ± 0.17.

On to EWETEVEMDKLRASDIMEPNLTYV [CLCN6], for which the protein stability index under setting [1] worked out at 3.85 ± 0.32 and the protein stability index under setting [2] is 4.08 ± 0.19.

Regarding SQMFPSSKARTKSLLGDDVFSTMA [FBF1], the protein stability index is, setting by setting: under setting [1], 2.89 ± 0.26; under setting [2], 2.97 ± 0.21.

On to QPRDEEEAELELLRQFDLAWQYGP [POLD4], for which the protein stability index under setting [1] stood at 4.87 ± 0.34 and the protein stability index under setting [2] was determined as 4.54 ± 0.27.

Take LSSEVLVGDLMSPFDQSGLGAEES [ATF4]: the protein stability index is, setting by setting: under setting [1], 5 ± 0.48; under setting [2], 4.84 ± 0.18.

Consider MSMNNSKQLVSPAAALLSNTTCQT [PTGFR], for which the protein stability index under setting [1] was found to be 3.79 ± 0.21 and the protein stability index under setting [2] was 3.99 ± 0.12.

As for QLAQLRCEMEQQSQEYQILLDVKT [KRT16], the protein stability index worked out at 3.34 ± 0.076 under setting [1] and 3.55 ± 0.28 under setting [2].

For the sequence QPKQLIVDDLKGSLKEDLTQHKFI [SPRY1], the protein stability index reads like this: under setting [1], 4.14 ± 0.13; under setting [2], 4.2 ± 0.22.

Take AFSYSSSSRFSSSRLLGSASPSSS [PRPH]: the protein stability index under setting [1] worked out at 3.04 ± 0.21 and the protein stability index under setting [2] came to 3.09 ± 0.051.

Take PILSRSTSTGSAASSGSNSSASSE [SPRY1]: the protein stability index under setting [1] was 5.42 ± 0.22 and the protein stability index under setting [2] is 5.44 ± 0.19.

Regarding TPPTTTAEIATASASASTTTTVTA [SNAP91], the protein stability index under setting [1] turned out to be 5.39 ± 0.15 and the protein stability index under setting [2] was 5.3 ± 0.13.

KSSIIPFRALKRPLQFLGLFENSL [ZER1] came in with a protein stability index under setting [1] of 1.9 ± 0.5 and a protein stability index under setting [2] of 2.31 ± 0.45.

As to LNLDIGQVYKETRLFLDGEEEKEW [AASDHPPT], the protein stability index was 3.95 ± 0.43 under setting [1] and 4.09 ± 0.44 under setting [2].

Turning to FDRTEWVQIRRLEAAGESLEEEIR [ZC2HC1C], the protein stability index stood at 4.02 ± 0.08 under setting [1] and 4.55 ± 0.1 under setting [2].

With SKQTEKDPGVQELEALIDTIQKQL [EFHC1], the protein stability index is, setting by setting: under setting [1], 3.83 ± 0.28; under setting [2], 3.86 ± 0.3.

In turn, WSLGVIMYEMLIGYPPFCSETPQE [STK38L] had a protein stability index under setting [1] of 2.85 ± 0.59 and a protein stability index under setting [2] of 2.52 ± 0.44.

For the sequence HEVREFKQLIYRVRRTDDTPVVLV [RIT1], the protein stability index by setting is: under setting [1], 2.2 ± 0.29; under setting [2], 2.24 ± 0.16.

For MALSNHYRSEDLLDVDTAAGGFQQ [FBXO3], the protein stability index is, setting by setting: under setting [1], 4.03 ± 0.18; under setting [2], 4.04 ± 0.13.

For PTLWTEQVKSRQNKTNKNSVSSCD [SMOC2], the protein stability index under setting [1] was determined as 4.81 ± 0.28 and the protein stability index under setting [2] stood at 4.84 ± 0.12.

In the case of YQQLKLEGPGEQETKLDLISKGEE [SLC29A1], the protein stability index runs as follows: under setting [1], 5.25 ± 0.28; under setting [2], 5.28 ± 0.13.

As for IVIGILSAYISNYAFANVFHGWKY [SLC2A12], the protein stability index is, setting by setting: under setting [1], 3.01 ± 0.51; under setting [2], 3.25 ± 0.68.

For the sequence DRLRDEELAELEDALRNLKCGSGA [TRADD], the protein stability index by setting is: under setting [1], 4.95 ± 0.23; under setting [2], 4.95 ± 0.24.

ALSPKTTITMAHLLAAREDLSKII [FAM98B]: the protein stability index was found to be 2.29 ± 0.27 under setting [1] and 2.55 ± 0.065 under setting [2].

On to VKLPLPAERVTLADFKGVLQRPSY [DVL3], for which the protein stability index by setting is: under setting [1], 2.5 ± 0.19; under setting [2], 2.73 ± 0.36.

Consider TSHSLPESSVPSTVGCSSQHTPDQ [PLEKHN1], for which the protein stability index was 5.36 ± 0.17 under setting [1] and 5.28 ± 0.16 under setting [2].

For the sequence EEKMETKTESSGIETEPTVHHLPL [EPB41L3], the protein stability index amounted to 5.56 ± 0.37 under setting [1] and 5.49 ± 0.27 under setting [2].

As for RRHTSMERYDPNIDQWSMLGDMQT [KLHL12], the protein stability index under setting [1] is 3.86 ± 0.27 and the protein stability index under setting [2] is 3.82 ± 0.26.

As to ASIPEHLAYGSVITVKNLRMAIGY [POMT2], the protein stability index runs as follows: under setting [1], 2.41 ± 0.29; under setting [2], 2.43 ± 0.33.

Consider DNLLQEMLLGGSPSDAPHAHHPLH [HNF4A], for which the protein stability index is, setting by setting: under setting [1], 3.97 ± 0.49; under setting [2], 4 ± 0.14.

The sequence REKPFKCQECGKTFRVSSDLIKHQ [ZNF75A] came in with a protein stability index under setting [1] of 4.73 ± 0.19 and a protein stability index under setting [2] of 4.72 ± 0.32.

SLCKVFGAHKDCQVAPLTHVFQRQ [TRIM55]: the protein stability index was 2.41 ± 0.35 under setting [1] and 2.66 ± 0.2 under setting [2].

Regarding EEEEGEEEELIRIFQEQQKKWQQY [FAM9B], the protein stability index under setting [1] is 4.02 ± 0.23 and the protein stability index under setting [2] stood at 4.13 ± 0.28.

Take KGTEKQTTSETQKSVQCGTWTKHA [NETO1]: the protein stability index was 4.84 ± 0.26 under setting [1] and 4.82 ± 0.13 under setting [2].

Take NFKPRGYSECIVTVGGEERVSRKP [GAN]: the protein stability index came out at 4.14 ± 0.28 under setting [1] and 4.32 ± 0.39 under setting [2].

FVEDQAVVETVFFLTSRTRALLRR [ZSWIM9]: the protein stability index is 2.21 ± 0.25 under setting [1] and 2.22 ± 0.14 under setting [2].

With TPQPTALTFAKSSWARQESLQERK [AUP1], the protein stability index under setting [1] worked out at 4.43 ± 0.14 and the protein stability index under setting [2] amounted to 4.48 ± 0.19.

In the case of EILEIDDLDAIVPAVKKLKVLSY [CEP70], the protein stability index came out at 2.87 ± 0.8 under setting [3] and 3.1 ± 0.041 under setting [4].

In the case of STDPNIVRKKERGREEKCVWKHGI [TAF7L], the protein stability index runs as follows: under setting [1], 3.31 ± 0.37; under setting [2], 3.51 ± 0.26.

For the sequence PRRVCVGGKRRRDDISVDSLDFTK [PPP2R2C], the protein stability index stood at 3.79 ± 0.16 under setting [1] and 3.9 ± 0.38 under setting [2].

In turn, LISCSEDGSVRIWELREKQQLAAE [WDR41] returned a protein stability index under setting [1] of 2.89 ± 0.28 and a protein stability index under setting [2] of 2.97 ± 0.2.

GQMSTPETPQPSPPGGSGSEPYKL [HNF4A]: the protein stability index came to 5.16 ± 0.21 under setting [1] and 5.17 ± 0.19 under setting [2].

Take NAININELFIEISRRIPSTDANLP [RAB22A]: the protein stability index reads like this: under setting [1], 2.35 ± 0.18; under setting [2], 2.18 ± 0.45.

In the case of MTEWFMCAFSRTLPWSSVLRVWDM [TBC1D10A], the protein stability index was 3.32 ± 0.42 under setting [1] and 2.84 ± 0.23 under setting [2].

In the case of CRGKKPSRIYGQAMAIINGSLYVF [KLHDC10], the protein stability index runs as follows: under setting [1], 3.22 ± 0.66; under setting [2], 2.51 ± 0.73.

For EIDEKVTDLVQFLLFKYQMKEPIT [MAGEA10], the protein stability index reads like this: under setting [1], 2.35 ± 0.5; under setting [2], 1.75 ± 0.3.

In the case of KEAQYIRTERVEQAFRAIDRGDYY [PCMTD1], the protein stability index under setting [1] came to 3.31 ± 0.33 and the protein stability index under setting [2] stood at 3.34 ± 0.28.

Consider IVLGPYHVKFRSLSMVSECLFSLI [MCOLN1], for which the protein stability index is, setting by setting: under setting [1], 2.94 ± 0.68; under setting [2], 2.78 ± 0.42.

Regarding SDSLLQSWNSQSSLLDVQRVPSFE [ETS2], the protein stability index worked out at 3.92 ± 0.3 under setting [1] and 3.76 ± 0.17 under setting [2].

Turning to LFLKEGACDELFSYLIEKVKRKKN [PRAME], the protein stability index runs as follows: under setting [1], 2.18 ± 0.5; under setting [2], 2.21 ± 0.27.

As to QKLDAFLQPLSKPLSSQPQAIVTE [MLH1], the protein stability index turned out to be 4.17 ± 0.3 under setting [1] and 4.21 ± 0.21 under setting [2].

NSAHHCVVEVENFLFVLGGEDQWN [KLHL14] displayed a protein stability index under setting [1] of 2.12 ± 0.27 and a protein stability index under setting [2] of 2.07 ± 0.3.

For the sequence DSARADDARQLFVLAGAAEEGFMT [GNAI1], the protein stability index is 4.21 ± 0.22 under setting [1] and 4.43 ± 0.077 under setting [2].

(Values after the supplement of paper PMC10567573.)
